Columns and labels:
[1] = biological target: T1, soluble HLA-E-RL9HIV complex (Homo sapiens); test: sandwich ELISA: plate coated with the antibody in serial dilution, C-trap-stabilized HLA-E-RL9HIV added, detection with HRP anti-human β2M [panel C]
T1 construct: C-trap-stabilized in the ELISA, biotinylated in the SPR; control antigen; also called C-trap-stabilized HLA-E-RL9HIV

[2] = biological target: T2, HLA-E-RL9SIV single chain trimer on transfected 293T cells (human, UniProt P61769 21-119; P13747 22-358); test: flow cytometry on SCT-transfected 293T cells
T2 construct: also called control HLA-E-peptide complex

[3] = biological target: HLA-E on K562-E cells loaded with microbiome-derived peptide […] (Pseudomonas formosensis) (human, UniProt P13747 22-358; P61769 21-119); test: flow cytometry on peptide-loaded K562-E cells, antibody 10 µg/ml
[4] = biological target: HLA-E on K562-E cells loaded with microbiome-derived peptide […] (Stenotrophomonas sp.) (human, UniProt P13747 22-358; P61769 21-119); test: as above
[5] = biological target: HLA-E on K562-E cells loaded with microbiome-derived peptide […] (Escherichia coli MS 175-1) (human, UniProt P13747 22-358; P61769 21-119); test: as above
[6] = biological target: T3, soluble HLA-E-RL9SIV complex (Homo sapiens); test: sandwich ELISA: plate coated with the antibody in serial dilution, C-trap-stabilized HLA-E-RL9SIV added, detection with HRP anti-human β2M [panel C]
T3 construct: C-trap-stabilized in the ELISA, biotinylated in the SPR; control antigen; also called C-trap-stabilized HLA-E-RL9SIV

[7] = biological target: T4, soluble HLA-E-VL9 complex (HLA-E*01:03 heavy chain, beta2-microglobulin, VL9 peptide …) (human); test: SPR, antibody on CM5 chip, soluble HLA-E-VL9 flowed over, 1:1 model; IgM 3H4
T4 construct: also called VL9 peptide-loaded HLA-E

B1: 3H4 (mouse IgM monoclonal antibody) (antibody, V domains shown)
VH: EVQLQESGPELVKPGASVKIPCKASGYTFTDYNMDWVKQSHGKSLEWIGDINPNNGGTIYNQKFKGKATLTVDKSSSTAYMELRSLTSEDTAVYYCARPDYYGSSYGWYFDVWGTGTTVTVSS
VL: DIVITQSPSSMYASLGERVTITCKASQDINSYLSWFQQKPGKSPKTLIYRANRLVDGVPSRFSGSGSGQDYSLTISSLEYEDMGIYYCLQYDEFPLTFGAGTKLELK
notes: also called mAb 3H4; IgM 3H4
[1]
  binding result: no binding
[2]
  binding result: no binding
[3]
  binding result: binds
[4]
  binding result: binds
[5]
  binding result: binds
[6]
  binding result: no binding
[7]
  Kd: 8.1 µM
